assay: soluble on expression in E. coli; label from the status in PepcDB or PDB records

Sequence	soluble on expression in E. coli
MDLGIKGKKVIVTAASKGIGLAIAKRFLEEGAKVIISSNDESNLMKAYNKLKEIHSENVSYIKADLMNPHEVKSLVHEGYRKLGGLDVLAYVTGSPKPGNLFSLSDKDWMDAFNLLLLSAVVAVREAGQLMQSGGRIILSTSTTLRQPIDNLDLSNVVRLSLAGLIKVASRELGPKGILVNGVMPGWTKTERLLQIIRDRAIREGKSEDEVLKSIVADVPLGRAGEPEEIANVVLFLASNLSTYVTGALIPVDGGSIKGVF	not soluble
MDLKFKSQETGRSIGFASHLRRHGATLANHLNYTRNEFISTLADCHQNLGIEGRASSPEKQFDEDGDEIEATATKIEWQPLKCPKCHRNSENTRKLLEHLVEDHGRPQDKAWFEQFDTIGTDLKKVFDKAIRIQAENSVVKKKFQNSNDLLVCPTDSPLAPFLLMRHLQVNFQEVSQTLTEGIVLKLQIASTSYTIIFSFHKVDKARRRIKREMARKSLERRLRVLELRCARTWVPDDDVVFKKKRTSEENKALIQALKLPATSSHDDIVLKINEMKTQHDEMVK	not soluble
MDLRSALEKTNIIKSYKLHFLIRYTTSRFEVKEPFLAYLHMARQKDKLLPKCITPPNKKADPFTNDVSSYFTHTHTHTPCSPSLVYTYVNTTEKSPSKSPKHKNILPFNFTK	not soluble
MDLSTIKVFEQKLELHREMPMKVVKKELHFSTKGEIDLVDITREVELFVAESGISKGQVLIFVPGATGAVVAIEHEEGLLEDFKKILKEIVPKEKPYLHNRFDDNAHSHIRATLLGPSLVFPIVDGELVRGTWQQIFFVELDTRPRKRRILLQAIGE	soluble
MDMQVVPKIGISSVVHSKHIDPGSIDVVGNDIALFDTESVISLYNGPSKLEVVSIGLCLEGSTRFNISLREFELIPGRMVIALPNQIIEHRQFSSNFRGIFFAVSKSLLESLPKVGNVLSFFFFLKDYPCFDLNLHEQEMIKEYHAFIRKRLKNKDDRYRREVVMGLMQGFFFELCNIFNSYAPDASAVVKSKSRKEYIFERFYESLVQSYQSERSVKFYADQLCLTPKHLSGVVKEVSGKTVGEWIDELVILEAKALLNSSSMNIQEIADRLNFANQSFFGKYFKHYTGMSPKEYRKSR	not soluble
MDPLLTVLKERMRACQRRVSDRPRRQVVAIEWIDPPMASGNWIPELIALAGGENMLGTAGKHSPYIEWSTLLAIDPEVILVMPCGFDLERTRQELDQALQTYPQWQQLRALQTGQLYILDGNAYFNRPGPRLVDSLEILVEILHPCPLEHHHHHH	soluble
MDQFSEPEETQVEQVENPDRNEAGYEVCNQSGENLSVAIAYFDTSIDSYRSEGWWNLDQSKCQFFPNLLDSVDEVYVFAESDQTLWSGDFPFCMQEDAFEYPDANRDRCPSPAYSKGFLKVEVGDAKTWTTLEHHHHHH	soluble
MDQKREALVGPITSSPASILELSIFYEFLKAQWCAFTIGSSEPPISPRQLNLLSLLIGPSNSDQEIPRDTVAVSWVYVGFEFGESCEQFGATDEQLRGHFEYQMICTNVQCIYFVEDGKKRRMAGVTWYLRNDEKSKNHEDYNMIAIYETIREKRFEEVQKIRKLEKEEALRRGGWLGEPTDEYTSTIFSHLKLLTLKDGRLAVFACNADGEEEKFAFNERTERYEVLEDVVEVEDRPSNYLLRII	not soluble
MDQSIRHLLGNLSLFTPPEEAAVYAEQHAVNKNEPLYFVVFPQADTALSELLVAGYQKLLENNFWGLTNSTQEAKDLMSRYGNTGLELYAHSRGSMTLGNMLYSFQQQGVHGIANENTTINLYGPAFNVLVASDLLGYVSDGKQTTVGFDGHRYDFVSRWIGGNSYTYKTIPSDSNAWKEWWRMFTDPDNPHTCLGDANAICNTLYGSSHLKQKP	not soluble
MDQTNENVKESEPPSDDGPPILSVLCSLVDEIGSLRNENLRLKTRLVPAPRNTKNVVQRMSAMLEHRGSSIFPKLRRANRSSESMEIRNGARERLSTPPRKETSNSMNTSSDVSYGRNRAPPIVRPEQSDSEIDEQIFDDDDHRSRDTTRRCDSVNVPRHQNDNSTSACTSPSSASSSRDPSETMTTSRSSFLDLLGLRRRSTHIPQPTSYSKTTALKQTNKKRRRKISGNDNDSESSGMYANMEDHCSRVPSKPPRPASYYRRDDSEDSDCLRQMRQRKTASSLNVNNYEHRHEDMYRVSRETQWQHEKDNLMAEIEEMKMRNNRLVEQLREKSQQQSKLQCQLHKAEMQVNALSRRCALSEALDRLTLDERMEKSATSWIKKIEERLRIFENQMQNAKLEAATAHQMALNSSCHEKDAHQNCLEKLESLQREHMRVIHSSLVEIGVDEINMKRRLENLPTYEALYAFTHSVVRRLNEARWAVIEKTNETSRAQIDLIVSQSSHLVSLAQLERLKIMQTLRGKRQKRPSSFHGHSVSERNIRQDLSFYLPLKLHGSRVENSRRTIKKNAIVGNDRNIEEEFLKLFSYSKDFSMELAAPPERRANTRIETMMREMNGNGRPIIRRGPSGVSNSNIMRDRVTREVPSNRRPISLVETEERRIRRNEETKRSIKFMKTNSIDHGYNAYEPPPASRTTTTTIVASTQDISNNVHSPHGTPVFTRRIIIPVKGNAYDIVPEGTTANIVPANIPQMGRVRKLERAFSAESRNTVDSLHDREEQRRERRDHVEGGVERRQSKIQRSQPVSRLKQPSVQLSKFRTIENNGANREPPSSSILRPRTLEPQTSIPRITTSPPESRIPTPSSRHGNEKRGWLERLKGIGKL	not soluble
MDQTQNTIAGIGEINGSIKTEINAIATVDDSNEKLNQIINSNQKILELLHQLKLTVSSFTPASQLHLLQRLNSLVMELDNMAKLSDKCNIQVPIEVLNLIDDGKNPDEFTKDVLNKNCIAKNQVTKGKSDAFKGLRKHLLEELEQAFPDEVDRYRDIRASYAAEAKRLAQTQSVLPNGDAKVKSEL	soluble
MDREALLERLKEPFDLLVLGGGATGAGVLWEATLRGLKAALVEAGDFASGTSSRSTKLLHGGVRYLELAFKRLDRRQLKLVVDALHERKVVMDLAPHLAKPLTLVTPLFRPLEIPYYTLGLKLYDLLAGKRRLAPSRYLPPEEVARLFPDLPKTLGGVAYQDGQFADFRLNLALVLSALERGAVALNHAEATALLLEGGRVRGAVVRDGLSGKEVEVRAKAVVNATGSLADRVRRLLDPHLPPLLTASSGVHLVLDYPLEAGLLVPKTRDGRVLFLLPYRGMALLGTTDLPAEPASCPLPREEEVAYLLEEIRPYLGDVSGRVRAVWSGLRPLVGKGETKLLVRDHYIEERRGLYTLVGGKWTTFRLMALDLVERLAKDLGLALPPSKSHATPLLGAGPRPPLPLPEEAARRLWETYGTLAPEVLALGDRPLLPGLPYLEGEVVWAVRRELARKPLDVLARRMGLAFLDQEKTREALPKVVELMAGLLGWDERERALRLKEAEEGLPGLC	soluble
MDREHLIKLACARNPDLEMCEQLKARNVRDSNSGKLEMIEPPPLPPSMKAAKRRDIHAAHDENSEQKPVRYRALSAEEVRILQTKCARVGPLVQKHCQPKKTSARNAGRCAAYFRDCAQFIEKGDPLGAIANSFDSGVNINLANVDVKGIPYYPLNEEGAVGVGVGLGIPFGAWGGGASTSVGVRDYFHGDQEVGANWYDGKYGYKNHWNIPLVQSLGVEGGQHNTVSFPLHGKDAGNLKVDNGYGVGGYYQQNDHVGVNYKEGDVRHTFGVSSPFVGAGFQTGQAVAFPGLDVWERALG	not soluble
MDRFDAMRAFARVVETGSFTKAADTLHMSKTSVTQLVQQLEARLRVRLLNRTTRKVNATADGAAYYERVRQLLADLEDAETSLSGASATPGGRLRVDVPSPFASTILVPALPAFQARYPDILLHLGVSDREVDLIDENVDCVIRGGQIGNLSLAARHVGDLQLGVYASPGYLARAGVPAHPRELQDAQHRIIGFSWSRARRLFPCAMRRRADERIEVAGRHALLLDEGNAYLAAGLAAMGVIGVPTYMAEAHVERGALIRLFGDWRLDPMPLYIAYPQNRHVSAKLRVFIDWIVELMARHAPVTDAPPPHRSARMPGGPAAIPTDITGA	not soluble
MDRIVEIEKYSFDETYETSLRPSNFDGYIGQESIKKNLNVFIAAAKKRNECLDHILFSGPAGLGKTTLANIISYEMSANIKTTAAPMIEKSGDLAAILTNLSEGDILFIDEIHRLSPAIEEVLYPAMEDYRLDIIIGSGPAAQTIKIDLPKFTLIGATTRAGMLSNPLRDRFGMQFRLEFYKDSELALILQKAALKLNKTCEEKAALEIAKRSRSTPRIALRLLKRVRDFADVNDEEIITEKRANEALNSLGVNELGFDAMDLRYLELLTAAKQKPIGLASIAAALSEDENTIEDVIEPYLLANGYIERTAKGRIASAKSYSALKLNYEKTLFEE	not soluble
MDRKGFLKSTMIATGSLLLGGAGICRFLNDKEPADGPFPRTIEKIHCGNMKKVLVIMSAGTKLGNTDRLTDAYIKGLVERGHSVTKVYLGSMRIEGCRGCGVCQRLAHQCAVRDGMQDIYPLFAECDTVVMASPLYFWTITSQLKAFIDRLYAISADDKYPQKDTVLLMTAGDDNENTFDQPKQYFRLLSQALGWNEVGIYCAGGCTGCEKLARQIDKVHLENVYKMGLEL	not soluble
MDRTRIVRRWRRNMDVADDAEYVEMLATLSEGSVRRNFNPYTDIDWESPEFAVTDNDPRWILPATDPLGRHPWYQAQSRERQIEIGMWRQANVAKVGLHFESILIRGLMNYTFWMPNGSPEYRYCLHESVEECNHTMMFQEMVNRVGADVPGLPRRLRWVSPLVPLVAGPLPVAFFIGVLAGEEPIDHTQKNVLREGKSLHPIMERVMSIHVAEEARHISFAHEYLRKRLPRLTRMQRFWISLYFPLTMRSLCNAIVVPPKAFWEEFDIPREVKKELFFGSPESRKWLCDMFADARMLAHDTGLMNPIARLVWRLCKIDGKPSRYRSEPQRQHLAAAPAA	not soluble
MDSDLYDEFGNYIGPELDSDDDAGDIDDNGDDEDRSDVDEDDEPDRMEEDDAEEIPQNQVVLHEDKKYYATALEVYGEGVETLVQEEDAQPLTEPIVKPVSKKKFQAAERFLPETVYKKEYLADLMDCPHIMRNVAIAGHLHHGKTTFLDCLMEQTHPEFYRAEDADARFTDILFIEKQRGCSIKSQPVSIVAQDSRSKSYLLNIIDTPGHVNFSDEMTASYRLADGVVVMVDAHEGVMMNTERAIRHAIQERLAVTLCISKIDRLLLELKLPPADAYFKLRLIIDQVNNILSTFAEEDVPVLSPLNGNVIFSSGRYNVCFSLLSFSNIYAKQHGDSFNSKEFARRLWGDIYFEKKTRKFVKKSPSHDAPRTFVQFILEPMYKIFSQVVGDVDTCLPDVMAELGIRLSKEEQKMNVRPLIALICKRFFGDFSAFVDLVVQNIKSPLENAKTKIEQTYLGPADSQLAQEMQKCNAEGPLMVHTTKNYPVDDATQFHVFGRVMSGTLEANTDVRVLGENYSIQDEEDCRRMTVGRLFVRVASYQIEVSRVPAGCWVLIEGIDQPIVKTATIAELGYEEDVYIFRPLKFNTRSCVKLAVEPINPSELPKMLDGLRKVNKSYPLLTTRVEESGEHVLLGTGEFYMDCVMHDMRKVFSEIDIKVADPVVTFNETVIETSTLKCFAETPNKKNKITMMAEPLEKQLDEDIENEVVQIGWNRRRLGEFFQTKYNWDLLAARSIWAFGPDTTGPNILLDDTLPSEVDKHLLSTVRESLVQGFQWATREGPLCEEPIRQVKFKLLDAAIATEPLYRGGGQMIPTARRCAYSAFLMATPRLMEPYYTVEVVAPADCVAAVYTVLAKRRGHVTTDAPMPGSPMYTISAYIPVMDSFGFETDLRIHTQGQAFCMSAFHHWQLVPGDPLDKSIVIKTLDVQPTPHLAREFMIKTRRRKGLSEDVSVNKFFDDPMLLELAKQQDYTGF	soluble
MDSKEVLVHVKNLEKNKSNDAAVLEILHVLDKEFVPTEKLLRETKVGVEVNKFKKSTNVEISKLVKKMISSWKDAINKNKRSRQAQQHHQDHAPGNAEDKTTVGESVNGVQ	soluble
MDSSQVPNPVLVLVGSPRRDGNSALLAQAVAEGARQSGAAATLLFLDDYIAGFLTDEKEADARRPDDRYGELFFDHFLPARAVVLCTPVYWYGMSAQAKAFFDRSFTYYSASHPRHAEVLRRMTGKRLALAVSSEETYPGAALGIVHQLQEFTRYTHSQFVGMVHGAGNRRGEVAHDPRRPLQAAHRLGHDLLSLPYSDYRIDSPRDHQVWPGAPA	not soluble

Reference: the DeepSol protein solubility set
